{
  "source": "patent US20090074782A1",
  "about": "(ONCOMED PHARMACEUTICALS, published 2009)",
  "binders": {"B1": {"name": "RSPO1-CD4™ (ligand)", "chain": "SRGIKGKRQRRISAEGSQACAKGCELCSEVNGCLKCSPKLFILLERNDIRQVGVCLPSCPPGYFDARNPDMNKCIKCKIEHCEACFSHNFCTKCKEGLYLHKGRCYPACPEGSSAANGTMECSSPAQCEMSEWSPWGPCSKKQQLCGFRRGSEERTRRVLHAPVGDHAACSDTKETRRCTVRRVPCPEGQKRRKGGQGRRENANRNLARKESKEAGAGSRRRKGQQQQQQQGTVGPLTSAGPA", "notes": "domain: transmembrane domain; Transiently expressed on HEK 293 cells together with GFP; also called cell-surface RSPO1; RSPO1-CD4TM; not shown: transmembrane domain of CD4"}, "B2": {"name": "FZD10-Fc (Fc fusion, UniProt Q9ULW2 21-154, looked up)", "chain": "ISSMDMERPGDGKCQPIEIPMCKDIGYNMTRMPNLMGHENQREAAIQLHEFAPLVEYGCHGHLRFFLCSLYAPMCTEQVSTPIPACRVMCEQARLKCSPIMEQFNFKWPDSLDCRKLPNKNDPNYLCMEAPNNG", "notes": "One of the 'various FZD-Fc constructs, including FZD1-10'; also called soluble FZD10; not shown: Fc"}, "B3": {"name": "FZD8-Fc (Fc fusion, UniProt Q9H461 28-158, looked up)", "chain": "ASAKELACQEITVPLCKGIGYNYTYMPNQFNHDTQDEAGLEVHQFWPLVEIQCSPDLKFFLCSMYTPICLEDYKKPLPPCRSVCERAKAGCAPLMRQYGFAWPDRMRCDRLPEQGNPDTLCMDYNRTDLTT", "notes": "One of the 'various FZD-Fc constructs, including FZD1-10'; also used against FLAG-LGR5-CD4™ cells; also called soluble FZD8; not shown: Fc"}, "B4": {"name": "FZD3-Fc (Fc fusion, UniProt Q9NPG1 23-143, looked up)", "chain": "HSLFSCEPITLRMCQDLPYNTTFMPNLLNHYDQQTAALAMEPFHPMVNLDCSRDFRPFLCALYAPICMEYGRVTLPCRRLCQRAYSECSKLMEMFGVPWPEDMECSRFPDCDEPYPRLVDL", "notes": "One of the 'various FZD-Fc constructs, including FZD1-10'; not shown: Fc"}, "B5": {"name": "FZD4-Fc (Fc fusion, UniProt Q9ULV1 40-170, looked up)", "chain": "EEERRCDPIRISMCQNLGYNVTKMPNLVGHELQTDAELQLTTFTPLIQYGCSSQLQFFLCSVYVPMCTEKINIPIGPCGGMCLSVKRRCEPVLKEFGFAWPESLNCSKFPPQNDHNHMCMEGPGDEEVPLP", "notes": "as for B4"}, "B6": {"name": "FZD5-Fc (Fc fusion, UniProt Q13467 27-157, looked up)", "chain": "ASKAPVCQEITVPMCRGIGYNLTHMPNQFNHDTQDEAGLEVHQFWPLVEIQCSPDLRFFLCSMYTPICLPDYHKPLPPCRSVCERAKAGCSPLMRQYGFAWPERMSCDRLPVLGRDAEVLCMDYNRSEATT", "notes": "as for B4"}, "B7": {"name": "FZD6-Fc (Fc fusion, UniProt O60353 19-146, looked up)", "chain": "HSLFTCEPITVPRCMKMAYNMTFFPNLMGHYDQSIAAVEMEHFLPLANLECSPNIETFLCKAFVPTCIEQIHVVPPCRKLCEKVYSDCKKLIDTFGIRWPEELECDRLQYCDETVPVTFDPHTEFLGP", "notes": "as for B4"}, "B8": {"name": "FZD9-Fc (Fc fusion, UniProt O00144 23-159, looked up)", "chain": "LEIGRFDPERGRGAAPCQAVEIPMCRGIGYNLTRMPNLLGHTSQGEAAAELAEFAPLVQYGCHSHLRFFLCSLYAPMCTDQVSTPIPACRPMCEQARLRCAPIMEQFNFGWPDSLDCARLPTRNDPHALCMEAPENA", "notes": "as for B4"}},
  "key": {"[1]": {"target": "FZD7-Fc (UniProt O75084 33-170)", "test": "FACS, Fc fusion on HEK 293 cells transfected with RSPO1-CD4™ and GFP", "experimental": "(§1) To determine the mechanism by which RSPO1 activates beta-catenin signaling, FACS analysis was used to assess binding between RSPO1 and LGR5. In certain embodiments, binding between soluble LGR5 and cell-surface RSPO1 was determined. A cell-surface RSPO1 protein was generated by ligating full-length human RSPO1 to the transmembrane domain of CD4 using standard recombinant DNA techniques (RSPO1-CD4™). HEK 293 cells were transiently transfected RSPO1-CD4™ and GFP. After 48 hours, cells were suspended in ice cold PBS containing 2% FCS and then incubated on ice in the presence of LGR5-Fc, LRP6-ECD-Fc (containing the extracellular domain of human LRP6 fused to an Fc domain), LRP6E1-2-Fc (containing amino acids 1-629 of human LRP6 fused to an Fc domain), or various FZD-Fc constructs, including FZD1-10. […] Only a weak interaction between RSPO1 and the WNT co-receptor LRP6 was detected."}, "[2]": {"target": "T1, FZD1-Fc (UniProt Q9UP38 87-237)", "T1 construct": "One of the 'various FZD-Fc constructs, including FZD1-10'; not shown: Fc", "test": "FACS, Fc fusion on HEK 293 cells transfected with RSPO1-CD4™ and GFP", "experimental": "as §1"}, "[3]": {"target": "FZD2-Fc (UniProt Q14332 24-159)", "test": "FACS, Fc fusion on HEK 293 cells transfected with RSPO1-CD4™ and GFP", "experimental": "as §1"}, "[4]": {"target": "B1", "test": "FACS, Fc fusion on HEK 293 cells transfected with RSPO1-CD4™ and GFP", "experimental": "as §1"}, "[5]": {"target": "T2, FLAG-LGR5-CD4™ (human, UniProt O75473 22-564)", "T2 construct": "domain: transmembrane domain; Transiently expressed on HEK 293 cells together with GFP; also called variant cell-surface LGR5 protein; cell-associated LGR5 construct; not shown: N-terminal FLAG tag; transmembrane domain of CD4", "T2 sequence": "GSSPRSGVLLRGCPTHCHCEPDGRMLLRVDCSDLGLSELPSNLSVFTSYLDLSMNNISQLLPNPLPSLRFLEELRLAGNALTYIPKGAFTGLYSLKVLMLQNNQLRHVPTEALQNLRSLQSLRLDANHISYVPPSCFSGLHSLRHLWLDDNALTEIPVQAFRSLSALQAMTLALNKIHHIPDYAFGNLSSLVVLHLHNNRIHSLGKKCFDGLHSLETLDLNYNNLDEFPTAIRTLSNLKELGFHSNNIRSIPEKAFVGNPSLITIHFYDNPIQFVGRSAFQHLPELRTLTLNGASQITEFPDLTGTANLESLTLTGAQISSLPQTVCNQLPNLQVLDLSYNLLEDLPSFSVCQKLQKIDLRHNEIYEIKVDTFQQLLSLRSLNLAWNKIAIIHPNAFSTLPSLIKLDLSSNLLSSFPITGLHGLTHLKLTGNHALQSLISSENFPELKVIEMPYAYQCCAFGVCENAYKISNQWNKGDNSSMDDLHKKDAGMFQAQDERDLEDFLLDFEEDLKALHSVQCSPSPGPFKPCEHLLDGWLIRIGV", "test": "FACS, Fc fusion on HEK 293 cells transfected with FLAG-LGR5-CD4™ and GFP, with heparin", "experimental": "In certain embodiments, binding between soluble RSPO1 and cell-surface LGR5 was determined. A variant cell-surface LGR5 protein was generated by ligating amino acids 22-564 of LGR5 to an N-terminal FLAG tag and to the transmembrane domain of CD4 using standard recombinant DNA techniques (FLAG-LGR5-CD4™). HEK 293 cells were transiently transfected with FLAG-LGR5-CD4™ and GFP. After 48 hours, cells were suspended in ice cold PBS containing 2% FCS and heparin and then incubated on ice in the presence of RSPO1-Fc, FZD8-Fc, or a FLAG antibody as a positive control."}},
  "data": [
    {"binder": "B1", "values": [
      {"measurement": "binding result", "setting": "[1]", "result": "no binding"},
      {"measurement": "binding result", "setting": "[2]", "result": "no binding"},
      {"measurement": "binding result", "setting": "[3]", "result": "no binding"}
    ]},
    {"binder": "B2", "values": [
      {"measurement": "binding result", "setting": "[4]", "result": "no binding"}
    ]},
    {"binder": "B3", "values": [
      {"measurement": "binding result", "setting": "[4]", "result": "no binding"},
      {"measurement": "binding result", "setting": "[5]", "result": "no binding"}
    ]},
    {"binder": "B4", "values": [
      {"measurement": "binding result", "setting": "[4]", "result": "no binding"}
    ]},
    {"binder": "B5", "values": [
      {"measurement": "binding result", "setting": "[4]", "result": "no binding"}
    ]},
    {"binder": "B6", "values": [
      {"measurement": "binding result", "setting": "[4]", "result": "no binding"}
    ]},
    {"binder": "B7", "values": [
      {"measurement": "binding result", "setting": "[4]", "result": "no binding"}
    ]},
    {"binder": "B8", "values": [
      {"measurement": "binding result", "setting": "[4]", "result": "no binding"}
    ]}
  ]
}
